The target of one assay is CEA (UniProt P06731). In words: SE-HPLC of 125I-TF2 mixed with a 20-fold molar excess of CEA.
The target of assay [1] is fusion protein containing the A3B3 domain of CEA (UniProt P06731). As to the kind of experiment: competitive ELISA vs HRP-conjugated hMN-14 IgG (1 nM) on the A3B3 fusion protein. (ELISA stands for enzyme-linked immunosorbent assay.)
fusion protein containing the A3B3 domain of CEA, sequence (P06731 499-676): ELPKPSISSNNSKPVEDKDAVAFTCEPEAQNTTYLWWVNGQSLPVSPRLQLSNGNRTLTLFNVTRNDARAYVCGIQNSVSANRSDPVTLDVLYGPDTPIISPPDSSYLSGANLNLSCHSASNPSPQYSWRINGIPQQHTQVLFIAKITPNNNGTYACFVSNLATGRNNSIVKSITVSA

CEA, sequence (P06731 35-685 limits assumed): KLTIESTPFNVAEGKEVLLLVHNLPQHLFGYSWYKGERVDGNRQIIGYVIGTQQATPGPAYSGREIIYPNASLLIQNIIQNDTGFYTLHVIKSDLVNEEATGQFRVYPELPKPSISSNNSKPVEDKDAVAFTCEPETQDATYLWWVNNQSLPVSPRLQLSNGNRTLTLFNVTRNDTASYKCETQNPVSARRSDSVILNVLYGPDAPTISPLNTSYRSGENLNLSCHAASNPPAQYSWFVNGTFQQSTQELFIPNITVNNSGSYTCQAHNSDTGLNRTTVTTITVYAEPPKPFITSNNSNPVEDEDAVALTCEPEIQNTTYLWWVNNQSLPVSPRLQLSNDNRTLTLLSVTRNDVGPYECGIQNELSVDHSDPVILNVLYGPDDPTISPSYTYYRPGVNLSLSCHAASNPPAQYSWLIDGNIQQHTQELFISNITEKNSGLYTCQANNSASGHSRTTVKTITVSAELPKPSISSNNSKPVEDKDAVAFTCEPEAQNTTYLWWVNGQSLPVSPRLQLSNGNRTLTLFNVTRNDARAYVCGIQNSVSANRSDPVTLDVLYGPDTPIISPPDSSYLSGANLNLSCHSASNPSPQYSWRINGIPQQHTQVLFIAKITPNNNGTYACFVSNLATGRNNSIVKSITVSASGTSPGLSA

TF2 (bispecific antibody): the percent shifted to a high molecular weight species in the assay with CEA is 95%. The fold avidity against TF1 in assay [1] was 2 fold.
